Measurements from patent US20250092146A1, “ANTI-CCR8 ANTIBODIES, CONJUGATES, AND USES THEREOF” (Abilita Bio, Inc., priority 2023, published 2025).
Where no end group is shown, it is not given here.

Target: T1, hCCR8 (Homo sapiens, UniProt P51685)
T1 construct: expressed in transfected cells
Test: Flow cytometry binding of VHH-Fc fusion antibodies to hCCR8 on stably transfected HEK293 cells
Conditions: Table 12; for EC50: VHH-2 CDR alanine mutants as human Fc fusions, HEK293 hCCR8; for % Bmax: normalized to wild type VHH-2-Fc
Protocol: VHH-Fc fusion antibodies were evaluated for their ability to bind to hCCR8 on stably transfected HEK293 cells by means of flow cytometry. Cells were incubated with different concentrations of the bivalent VHH-Fc fusions for 60 minutes at 4° C., followed by two washes with FACS buffer, followed by 30 minutes incubation at 4° C. with the Zenon R-Phycoerythrin Anti-human IgG (ThermoFisher Scientific, #Z-25455), and two additional washing steps. Data were plotted and fit using GraphPad Prism software. EC50 and Bmax values individual antibodies were calculated from the resulting dose-response curves. Bivalent VHH-Fc fusions (Seq ID NOs: 31, 33, and 87-103) of 19 different VHH domains (SEQ ID NOs: 27, 28, and 70-86) were tested for cell binding and results are shown in Table 7. […]
VHH-Fc fusion DNA constructs were then generated comprising encoding humanized VHH sequences (SEQ ID NOs: 106-111) fused in frame to the human IgG1 (SEQ ID NO: 34) directly to the short hinge sequence in the pFuse expression vector, and were expressed, purified and analyzed for binding to HEK293 cells expressing human CCR8 as in Example 5. Binding curves for VHH-Fc antibodies comprised of parental VHH-1 and the humanized VHH derivatives VHH-1.2-Fc and VHH-1.3-Fc are shown in FIG. 9A. Binding curves for VHH-Fc antibodies comprised of parental VHH-2 and the humanized VHH derivatives VHH-2-Fc, VHH-2.2-Fc and VHH-2.3-Fc, are shown in FIG. 9B. Cell binding EC50 values, normalized Bmax (relative to respective parental clone) data and humanizing mutations are shown in Table 10 below.
Approaches such as in vitro affinity maturation and rational mutagenesis can be performed to regain binding affinity and/or stability lost through humanization. In vitro affinity maturation generally involves building and amino acid substitution library where amino acid positions are varied across the CDRs and/or framework at a defined set of positions using sets of amino acids chosen to introduce new chemical diversity. The paratope residues within the CDR regions are of course key to antigen binding and care must be taken not to disrupt important structures while attempting to evolve improve antibody behavior. One approach to identify positions that are important to the maintenance of binding properties is to perform paratope mapping using single scanning alanine substitutions across antibody CDR regions. In this approach, residues that are critical to the maintenance of antibody binding to the antigen can be identified and at the same time permissive sites can be identified where it may be possible to make substitutions of other amino acids desirable for subsequent affinity maturation library construction. Site directed mutagenesis was used to make single alanine substitutions at each residue in the CDRs of VHH-1 (SEQ ID NO: 27) and VHH-2 (SEQ ID NO: 28). Changes in VHH-1 CDR amino acids to alanine are indicated in Table 11 (SEQ ID NOs: 112-137) and for VHH-2 CDRs (SEQ ID NO: 138-162) in Table 12. Mutation positions and residue changes to alanine with respect to the in the parental VHH sequences are referenced by their IMGT position. VHH domains containing the indicated modified CDR-1, CDR-2 or CDR-3 domains were used to construct Fc fusions by direct grafting to the short hinge of the human Fc domain (SEQ ID NO: 34). VHH-Fc constructs were expressed, purified and analyzed for binding to HEK293 cells expressing hCCR8 and the results are reported in Table 11 and Table 12. EC50 values are reported for each Fc fusion antibody containing a modified CDR, along with its respective Bmax value normalized to the to the matched wild type VHH-1-Fc or VHH-2-Fc fusion antibody.

T1 sequence (P51685 whole entry): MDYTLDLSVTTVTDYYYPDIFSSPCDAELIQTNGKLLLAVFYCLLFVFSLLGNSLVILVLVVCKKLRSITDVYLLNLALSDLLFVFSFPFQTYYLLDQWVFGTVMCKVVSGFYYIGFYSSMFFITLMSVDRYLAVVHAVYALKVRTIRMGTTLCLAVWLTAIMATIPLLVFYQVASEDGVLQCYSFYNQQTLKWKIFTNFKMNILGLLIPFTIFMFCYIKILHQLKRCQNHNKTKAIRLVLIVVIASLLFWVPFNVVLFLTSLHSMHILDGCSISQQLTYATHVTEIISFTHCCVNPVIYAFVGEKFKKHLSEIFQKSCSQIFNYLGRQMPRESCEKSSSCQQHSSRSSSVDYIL

Row | Substance | EC50 [nM] | % Bmax [%]
1 | VHH-2 S57A: VHH-2 alanine mutant, CDR2 TASRTSP, fused to human IgG1 Fc (also: CDR2 of VHH-2 in VHH fused to human IgG1 Fc) | 1.03 | 69
2 | VHH-2 Y117A: VHH-2 alanine mutant, CDR3 QARMAMGSSQVVA, fused to human IgG1 Fc (also: CDR3 of VHH-2 in VHH fused to human IgG1 Fc) | 0.86 | 76
3 | VHH-2 V115A: VHH-2 alanine mutant, CDR3 QARMAMGSSQAVY, fused to human IgG1 Fc (also: CDR3 of VHH-2 in VHH fused to human IgG1 Fc) | 1.34 | 11
4 | VHH-2 V116A: VHH-2 alanine mutant, CDR3 QARMAMGSSQVAY, fused to human IgG1 Fc (also: CDR3 of VHH-2 in VHH fused to human IgG1 Fc) | 0.83 | 72
5 | VHH-2 S58A: VHH-2 alanine mutant, CDR2 TSARTSP, fused to human IgG1 Fc (also: CDR2 of VHH-2 in VHH fused to human IgG1 Fc) | 1.02 | 65
6 | VHH-2 S63A: VHH-2 alanine mutant, CDR2 TSSRTAP, fused to human IgG1 Fc (also: CDR2 of VHH-2 in VHH fused to human IgG1 Fc) | 1.08 | 70
7 | VHH-2 T29A: VHH-2 alanine mutant, CDR1 GSASTINR, fused to human IgG1 Fc (also: CDR1 of VHH-2 in VHH fused to human IgG1 Fc) | 1.43 | 65
8 | VHH-2 T35A: VHH-2 alanine mutant, CDR1 GSTSAINR, fused to human IgG1 Fc (also: CDR1 of VHH-2 in VHH fused to human IgG1 Fc) | 0.87 | 65
9 | VHH-2 S113A: VHH-2 alanine mutant, CDR3 QARMAMGSAQVVY, fused to human IgG1 Fc (also: CDR3 of VHH-2 in VHH fused to human IgG1 Fc) | 0.9 | 48
10 | VHH-2 T59A: VHH-2 alanine mutant, CDR2 TSSRASP, fused to human IgG1 Fc | 1.48 | 74
11 | VHH-2 S30A: VHH-2 alanine mutant, CDR1 GSTATINR, fused to human IgG1 Fc (also: CDR1 of VHH-2 in VHH fused to human IgG1 Fc) | 1.62 | 66
12 | VHH-2 S28A: VHH-2 alanine mutant, CDR1 GATSTINR, fused to human IgG1 Fc (also: CDR1 of VHH-2 in VHH fused to human IgG1 Fc) | 1.61 | 68
